# Data from PMC4686854 (2015).
# T1: mouse SAD-A KD-UBA fragment (kinase domain and UBA domain) (mouse)
# T1 sequence (Q69Z98 whole entry, looked up): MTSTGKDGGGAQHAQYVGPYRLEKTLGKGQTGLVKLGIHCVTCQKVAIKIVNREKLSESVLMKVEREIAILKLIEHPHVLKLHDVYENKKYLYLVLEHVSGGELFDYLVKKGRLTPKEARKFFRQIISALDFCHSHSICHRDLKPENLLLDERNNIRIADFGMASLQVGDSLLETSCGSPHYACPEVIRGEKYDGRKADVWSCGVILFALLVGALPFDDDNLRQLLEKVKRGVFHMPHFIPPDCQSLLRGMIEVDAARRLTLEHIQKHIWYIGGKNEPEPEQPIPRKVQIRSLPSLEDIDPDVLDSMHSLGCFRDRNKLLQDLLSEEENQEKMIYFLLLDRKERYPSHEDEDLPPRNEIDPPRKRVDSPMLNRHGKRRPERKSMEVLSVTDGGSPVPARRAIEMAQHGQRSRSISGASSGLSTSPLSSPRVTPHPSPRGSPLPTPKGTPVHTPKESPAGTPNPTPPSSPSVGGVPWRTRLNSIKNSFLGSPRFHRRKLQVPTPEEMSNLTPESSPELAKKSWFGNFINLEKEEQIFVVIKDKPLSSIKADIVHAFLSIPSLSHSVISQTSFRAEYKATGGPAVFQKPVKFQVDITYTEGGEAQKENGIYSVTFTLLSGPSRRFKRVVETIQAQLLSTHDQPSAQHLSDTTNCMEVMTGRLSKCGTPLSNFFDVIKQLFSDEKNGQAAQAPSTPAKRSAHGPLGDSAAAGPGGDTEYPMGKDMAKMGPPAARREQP
# T2: mouse SAD-A KD-UBA fragment (kinase domain and UBA domain) (mouse)
# T2 chain: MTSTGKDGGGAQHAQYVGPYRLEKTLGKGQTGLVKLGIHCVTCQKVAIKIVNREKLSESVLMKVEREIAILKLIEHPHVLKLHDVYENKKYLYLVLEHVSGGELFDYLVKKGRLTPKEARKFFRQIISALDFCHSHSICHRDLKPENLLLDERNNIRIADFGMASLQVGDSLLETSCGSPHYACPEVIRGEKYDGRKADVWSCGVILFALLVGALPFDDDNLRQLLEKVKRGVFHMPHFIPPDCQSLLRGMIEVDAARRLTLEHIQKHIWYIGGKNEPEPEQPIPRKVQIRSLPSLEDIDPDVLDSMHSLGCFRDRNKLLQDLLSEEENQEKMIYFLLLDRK
# What was measured:
# [1] = target: T1, mouse SAD-A KD-UBA fragment (kinase domain and UBA domain) (mouse)
# [2] = target: T2, mouse SAD-A KD-UBA fragment (kinase …); assay: apparent Ki from trans-inhibition of KD-UBA kinase activity; fragment 506-653; residual activity a=0.14
# [3] = target: T2, mouse SAD-A KD-UBA fragment (kinase …); assay: trans-inhibition of KD-UBA kinase activity, non-competitive fit (a = 0.15)
# [4] = target: T2, mouse SAD-A KD-UBA fragment (kinase …); assay: trans-inhibition of KD-UBA kinase activity, non-competitive fit (a = 0.19)
# [5] = target: T2, mouse SAD-A KD-UBA fragment (kinase …); assay: apparent Ki from trans-inhibition of KD-UBA kinase activity; residual activity a=0.34
# [6] = target: T2, mouse SAD-A KD-UBA fragment (kinase …); assay: apparent Ki from trans-inhibition of KD-UBA kinase activity; residual activity a=0.19
binder,measurement,setting,value
"mouse SAD-A C-terminal fragment containing the sequence N terminal to KA1 (506-530) (domain or fragment, No chemistry outside the sequence. Built as residues 506-653 of the 653-residue isoform: the N-terminal limit 506 comes from the printed 506-530 segment, and the C-terminal limit 653 is inferred from the protein end, as in the 519-653 and 530-653 fragments. In 4YOM entity 2, position 2 = K519, 14 = K531 and 136 = S653; the initiator Met and the LEHHHHHH tag are left out.) MSNLTPESSPELAKKSWFGNFINLEKEEQIFVVIKDKPLSSIKADIVHAFLSIPSLSHSVISQTSFRAEYKATGGPAVFQKPVKFQVDITYTEGGEAQKENGIYSVTFTLLSGPSRRFKRVVETIQAQLLSTHDQPSAQHLSGIIPKS",trans-inhibition of the kinase activity of KD-UBA (10 nM) towards Cdc25C peptide; residual activity at the plateau,[1],15%
same,Ki,[2],5.82 µM
MSNLTPESSPELAKKSWFGNFINLE (domain or fragment) [chimeric protein: mouse SAD-A residues 506-530 fused to a C-terminal thioredoxin-tag],trans-inhibition of the kinase activity of KD-UBA (10 nM) towards Cdc25C peptide; residual activity at the plateau,[1],15%
same,Ki,[3],7.58 µM
mouse SAD-A AIS-KA1 fragment (residues 519-653) (domain or fragment) KKSWFGNFINLEKEEQIFVVIKDKPLSSIKADIVHAFLSIPSLSHSVISQTSFRAEYKATGGPAVFQKPVKFQVDITYTEGGEAQKENGIYSVTFTLLSGPSRRFKRVVETIQAQLLSTHDQPSAQHLSGIIPKS,Ki,[4],5.85 µM
KKSWFGNFINLE [AIS peptide of mouse SAD-A (residues 519-530)],Ki,[5],24.8 µM
MSNLTPESSPELAKKSWFGNFINLE [AIS-containing peptide of mouse SAD-A (residues 506-530)],Ki,[6],15.1 µM
